Measured values from patent US20240261333A1 (published 2024).

Tests used:
Test in all cases: co-IP with anti-FLAG, N-FLAG B3GNT2, mass spectrometry
[1] = biological target: T1, CHCHD3 (human, UniProt Q9NX63 2-227, limits assumed)
T1 construct: also called NP_001304106.1 (+1)
T1 sequence (looked up): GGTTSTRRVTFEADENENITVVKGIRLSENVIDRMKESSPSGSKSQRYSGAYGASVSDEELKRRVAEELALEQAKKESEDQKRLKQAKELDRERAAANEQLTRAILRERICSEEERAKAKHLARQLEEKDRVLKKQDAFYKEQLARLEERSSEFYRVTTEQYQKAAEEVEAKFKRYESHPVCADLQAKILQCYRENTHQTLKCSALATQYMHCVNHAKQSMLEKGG

[2] = biological target: T2, PKM (human, UniProt P14618 2-531, limits assumed)
T2 construct: also called NP_001193725.1 (+3)

[3] = biological target: T3, YBX1 (human, UniProt P67809 2-324)
T3 construct: also called NP_004550.2

[4] = biological target: RPS14 (human, UniProt P62263 2-151)
[5] = biological target: RPL38 (human, UniProt P63173 1-70)
[6] = biological target: T4, JUP (human, UniProt P14923 1-745)
T4 construct: also called NP_001339702.1
T4 sequence (looked up): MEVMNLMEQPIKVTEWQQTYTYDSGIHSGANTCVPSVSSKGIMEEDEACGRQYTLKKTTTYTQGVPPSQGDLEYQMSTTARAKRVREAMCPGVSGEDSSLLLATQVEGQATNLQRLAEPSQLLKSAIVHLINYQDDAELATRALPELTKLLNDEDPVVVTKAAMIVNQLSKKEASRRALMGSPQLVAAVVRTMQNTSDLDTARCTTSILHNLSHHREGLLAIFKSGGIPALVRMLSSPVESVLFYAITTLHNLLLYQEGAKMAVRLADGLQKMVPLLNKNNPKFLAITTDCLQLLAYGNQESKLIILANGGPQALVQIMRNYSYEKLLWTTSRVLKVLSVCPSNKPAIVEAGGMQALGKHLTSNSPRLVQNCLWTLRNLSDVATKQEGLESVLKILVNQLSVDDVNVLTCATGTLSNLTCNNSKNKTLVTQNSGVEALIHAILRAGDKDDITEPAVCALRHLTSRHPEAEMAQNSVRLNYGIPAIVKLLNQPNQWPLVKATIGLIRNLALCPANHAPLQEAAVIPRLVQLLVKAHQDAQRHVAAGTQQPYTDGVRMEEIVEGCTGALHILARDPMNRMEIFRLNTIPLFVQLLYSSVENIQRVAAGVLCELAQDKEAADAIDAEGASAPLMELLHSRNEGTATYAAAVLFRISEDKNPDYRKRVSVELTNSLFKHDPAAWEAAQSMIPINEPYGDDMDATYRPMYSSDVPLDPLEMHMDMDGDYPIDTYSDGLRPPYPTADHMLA

[7] = biological target: T5, DDX17 (human, UniProt Q92841 1-729, limits assumed)
T5 construct: also called NP_001091974.1

[8] = biological target: T6, TM9SF1 (human, UniProt O15321-2 28-489, limits assumed)
T6 construct: also called NP_001014842.1 (+1)

[9] = biological target: T7, ARPC1B (human, UniProt O15143 2-372)
T7 construct: also called NP_005711.1

T3 sequence (P67809 2-324 limits assumed): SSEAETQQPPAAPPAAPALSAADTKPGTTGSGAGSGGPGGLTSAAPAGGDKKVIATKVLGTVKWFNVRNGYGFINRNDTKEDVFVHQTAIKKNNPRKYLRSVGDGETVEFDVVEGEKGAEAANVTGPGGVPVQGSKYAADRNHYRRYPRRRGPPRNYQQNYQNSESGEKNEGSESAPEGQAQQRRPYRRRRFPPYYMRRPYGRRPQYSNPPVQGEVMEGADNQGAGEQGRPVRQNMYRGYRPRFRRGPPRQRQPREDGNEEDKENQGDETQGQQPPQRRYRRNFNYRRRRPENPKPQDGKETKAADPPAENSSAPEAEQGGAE
T6 sequence (O15321 other isoform, or with tags, fused parts or gaps limits assumed): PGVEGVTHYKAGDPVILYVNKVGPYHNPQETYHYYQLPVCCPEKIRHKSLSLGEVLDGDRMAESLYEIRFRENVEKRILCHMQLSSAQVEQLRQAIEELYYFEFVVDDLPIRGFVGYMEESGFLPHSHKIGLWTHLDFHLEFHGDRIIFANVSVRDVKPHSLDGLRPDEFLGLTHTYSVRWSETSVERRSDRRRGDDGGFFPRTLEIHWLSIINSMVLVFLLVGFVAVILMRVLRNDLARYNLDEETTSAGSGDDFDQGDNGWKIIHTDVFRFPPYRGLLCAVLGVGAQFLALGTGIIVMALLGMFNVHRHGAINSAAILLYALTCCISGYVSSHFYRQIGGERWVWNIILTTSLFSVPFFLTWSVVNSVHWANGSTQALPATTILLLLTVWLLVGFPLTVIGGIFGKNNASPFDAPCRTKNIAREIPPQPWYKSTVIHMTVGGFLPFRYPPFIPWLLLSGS
T5 sequence (Q92841 whole entry): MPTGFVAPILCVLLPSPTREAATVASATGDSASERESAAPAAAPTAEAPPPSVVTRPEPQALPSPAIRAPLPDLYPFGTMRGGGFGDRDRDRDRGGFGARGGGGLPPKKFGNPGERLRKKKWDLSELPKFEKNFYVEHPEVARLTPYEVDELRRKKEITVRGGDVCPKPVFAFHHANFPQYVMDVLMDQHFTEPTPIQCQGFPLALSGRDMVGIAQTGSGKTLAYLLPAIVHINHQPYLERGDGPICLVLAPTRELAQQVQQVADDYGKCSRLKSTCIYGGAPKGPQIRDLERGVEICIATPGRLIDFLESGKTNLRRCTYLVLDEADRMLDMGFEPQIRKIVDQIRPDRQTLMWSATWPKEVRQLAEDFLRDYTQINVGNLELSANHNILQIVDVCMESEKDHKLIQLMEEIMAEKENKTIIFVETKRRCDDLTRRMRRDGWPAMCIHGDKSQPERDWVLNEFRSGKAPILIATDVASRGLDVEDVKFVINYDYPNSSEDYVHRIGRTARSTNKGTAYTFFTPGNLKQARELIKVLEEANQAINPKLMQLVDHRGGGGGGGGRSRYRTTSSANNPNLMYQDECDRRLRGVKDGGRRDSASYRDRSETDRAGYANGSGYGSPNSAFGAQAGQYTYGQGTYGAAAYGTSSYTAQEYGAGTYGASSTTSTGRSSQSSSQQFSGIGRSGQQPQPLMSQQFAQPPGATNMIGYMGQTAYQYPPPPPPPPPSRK
T2 sequence (P14618 2-531 limits assumed): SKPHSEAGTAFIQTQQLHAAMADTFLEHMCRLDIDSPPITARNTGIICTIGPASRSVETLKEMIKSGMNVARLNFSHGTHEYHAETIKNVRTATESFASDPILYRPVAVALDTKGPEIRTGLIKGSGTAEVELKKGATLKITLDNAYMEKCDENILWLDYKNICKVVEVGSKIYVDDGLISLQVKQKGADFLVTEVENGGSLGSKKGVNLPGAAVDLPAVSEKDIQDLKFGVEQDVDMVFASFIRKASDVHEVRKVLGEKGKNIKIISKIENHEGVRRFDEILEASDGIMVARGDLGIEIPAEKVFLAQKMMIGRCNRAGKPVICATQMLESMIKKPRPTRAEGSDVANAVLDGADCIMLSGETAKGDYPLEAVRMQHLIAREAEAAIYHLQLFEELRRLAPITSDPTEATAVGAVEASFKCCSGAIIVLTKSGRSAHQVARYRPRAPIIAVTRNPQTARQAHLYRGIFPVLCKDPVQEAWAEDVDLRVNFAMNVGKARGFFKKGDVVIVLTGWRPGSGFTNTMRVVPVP

B1: N-terminal FLAG tagged B3GNT2 (enzyme, human, UniProt Q9NY97 1-397, looked up)
chain: MSVGRRRIKLLGILMMANVFIYFIMEVSKSSSQEKNGKGEVIIPKEKFWKISTPPEAYWNREQEKLNRQYNPILSMLTNQTGEAGRLSNISHLNYCEPDLRVTSVVTGFNNLPDRFKDFLLYLRCRNYSLLIDQPDKCAKKPFLLLAIKSLTPHFARRQAIRESWGQESNAGNQTVVRVFLLGQTPPEDNHPDLSDMLKFESEKHQDILMWNYRDTFFNLSLKEVLFLRWVSTSCPDTEFVFKGDDDVFVNTHHILNYLNSLSKTKAKDLFIGDVIHNAGPHRDKKLKYYIPEVVYSGLYPPYAGGGGFLYSGHLALRLYHITDQVHLYPIDDVYTGMCLQKLGLVPEKHKGFRTFDIEEKNKNNICSYVDLMLVHSRKPQEMIDIWSQLQSAHLKC
notes: FLAG-tagged ORF overexpressed in cells; pulled down from lysate with mouse anti-FLAG; also called N-FLAG B3GNT2; N-term FLAG; not shown: N-terminal FLAG tag
For B1, the “co-IP mass spectrometry count” value [1] was 16, the “co-IP mass spectrometry count” value [2] was 3 and the “co-IP mass spectrometry count” value [3] was 2. For the same binder, the “co-IP mass spectrometry count” value [4] was 11 and the “co-IP mass spectrometry count” value [5] was 9.

B2: N-terminal FLAG tagged B3GNT2 (enzyme, human, UniProt Q9NY97 1-397, looked up)
chain: MSVGRRRIKLLGILMMANVFIYFIMEVSKSSSQEKNGKGEVIIPKEKFWKISTPPEAYWNREQEKLNRQYNPILSMLTNQTGEAGRLSNISHLNYCEPDLRVTSVVTGFNNLPDRFKDFLLYLRCRNYSLLIDQPDKCAKKPFLLLAIKSLTPHFARRQAIRESWGQESNAGNQTVVRVFLLGQTPPEDNHPDLSDMLKFESEKHQDILMWNYRDTFFNLSLKEVLFLRWVSTSCPDTEFVFKGDDDVFVNTHHILNYLNSLSKTKAKDLFIGDVIHNAGPHRDKKLKYYIPEVVYSGLYPPYAGGGGFLYSGHLALRLYHITDQVHLYPIDDVYTGMCLQKLGLVPEKHKGFRTFDIEEKNKNNICSYVDLMLVHSRKPQEMIDIWSQLQSAHLKC
notes: FLAG-tagged ORF overexpressed in A375 cells; pulled down from the lysate with mouse anti-FLAG; also called N-FLAG B3GNT2; N-term FLAG; not shown: N-terminal FLAG tag
In the case of B2, the “co-IP/MS count, N-term FLAG” value [6] is reported as 47, the “co-IP/MS count, N-term FLAG” value [7] is reported as 23 and the “co-IP/MS count, N-term FLAG” value [8] is reported as 0. For the same binder, the “co-IP/MS count, N-term FLAG” value [9] was 0.
